From patent US11524082B2, “FBSA-based therapeutic and radioimaging conjugates targeting carbonic anhydrase positive cancers” (priority 2017, dated 2022)
Entries after “also recorded” stand apart in the source; their conditions may differ.

Columns and labels:
HT-29 xenografts = assay: In vivo efficacy of tubulysin conjugates in HT-29 xenograft tumors; set-up: species or system mice
Method: Athymic nu/nu mice were purchased from Harlan Laboratories (ENVIGO), housed in a sterile environment on a standard 12 hour light-dark cycle and maintained on normal rodent chow. All animal procedures were approved by the PURDUE Animal Care and Use Committee in accordance with National Institutes of Health guidelines.
In Vivo Efficacy of Tubulysin Conjugate 12 in HT29 Xenograft Tumors.
Cells, HT-29 cells (4.25×10^6) were subcutaneously injected into the shoulders of 5-6 week old female nu/nu mice. Tumors were measured in two perpendicular directions thrice weekly with vernier calipers and their volumes were calculated as 0.5×L×W^2, where L is the longest axis (in millimeters), and W is the axis perpendicular to L (in millimeters). Dosing of Conjugate 12 was initiated when the subcutaneous tumors reached ˜100-275 mm^3 in volume. Dosing solutions were prepared in saline and filtered through a 0.22 μm filter. Solutions were administered via tail vein injection or intraperitoneally. […] Injections were given every two days and the mice were weighed concurrently. […]

HT-29 cells = type: cell-based; conditions: 2 hr incubation, then 66 hr in fresh medium, FIG. 8, read-out: IC50 (3H-thymidine incorporation)
Method: General Procedure for In Vitro Cytotoxicity Determination by ^3H-Thymidine Uptake Assays
HT-29 cells were seeded on amine-coated 24-well plates and allowed to form monolayers. The spent medium in each well was replaced with fresh medium (0.5 mL) containing various concentrations of Conjugate 12. After incubating for 2 hr at 37° C., cells were rinsed three times with fresh medium and then incubated an additional 66 hr at 37° C. in fresh medium. Spent medium in each well was again replaced with fresh medium (0.5 mL) containing ^3H-thymidine (1 μCi/ml) and the cells were incubated for an additional 4 hr. After washing the cells three times with medium, they were dissolved in 0.5 mL of 0.25 M NaOH. Thymidine incorporation was then determined by counting cell-associated radioactivity using a scintillation counter (PACKARD, PACKARD INSTRUMENT COMPANY). The IC50 value was derived from a plot of the percent of ^3H-thymidine incorporation versus log concentration using Graph Pad Prism 4 and TABLECURVE 2D software.

Q: What does the source list for CCCC(=O)OCN(C(=O)[C@@H](NC(=O)C1CCCCN1C)[C@@H](C)CC)[C@H](C[C@@H](OC(C)=O)c1nc(C(=O)N[C@@H](Cc2ccc(O)cc2)C[C@H](C)C(=O)NNC(=O)OCCSSC[C@H](NC(=O)[C@H](CC(=O)O)NC(=O)[C@@H](N)CNC(=O)CCOCCOCCNC(=O)CCS(=O)(=O)c2c(F)c(F)c(S(N)(=O)=O)c(F)c2NC2CCCCCCC2)C(=O)O)cs1)C(C)C (some centres unmarked) [Conjugate 12]?
A: gross toxicity (HT-29 xenografts; HT-29 xenograft mice, 2 μmol/kg per injection): no gross toxicity was observed; loss of weight (HT-29 xenografts; HT-29 xenograft mice, 2 μmol/kg per injection, FIG. 12): less than 10%; body mass loss (HT-29 xenografts; HT-29 xenograft mice, 2 umol/kg, at 6 days into the treatment, FIG. 12): not more than 10%; tumor response (HT-29 xenografts; HT-29 xenografts, 2 μmol/kg per injection, every two days (TIW), n=3, FIG. 11): tumors shrinking; also recorded: halted tumor growth and the xenograft is in the process of shrinking; IC50 (HT-29 cells): 5.04 nM
